# In US20170267768A1 (University of California, published 2017):
# How the values were obtained:
# [1] = target: T1, His6-tagged recombinant human EphA2 protein (human, UniProt P29317 25-534); test: BLI (Octet Red 96); His6-EphA2 on anti-His sensors; slope of association curve of scFv-PEG-DSPE conjugate; TS1C printed as 100
# T1 construct: also called his-tagged recombinant, human EphA2; human EphA2 with c-terminal His6
# Source text: (§1) A nucleic acid encoding human EphA2 with c-terminal His6 appended was cloned into expression vector pCEP4 (Invitrogen® # V044-50) and transiently expressed in FreeStyle™ 293 cells (Invitrogen® #K900001) following polyethylenenimine transfection. The His6-tagged recombinant human EphA2 protein was purified from the cell culture medium using Ni-NTA Sepharose™ resin (Quiagen®, USA). Anti-His sensors for the fortéBIO® Octet Red 96 system (fortéBIO®-Pall® #18-5116) were coated with his-tagged recombinant, human EphA2 at concentration of 10 μg/ml protein for 300 sec, and a background run was carried out in PBS for 60 sec. For scFv-PEG-DSPE conjugates, the sensors were then incubated with 2.5 μg/ml (Study 1) or 4.0 μg/ml (Study 2) of the conjugate in PBS, pH 7.4, and the slopes of association curves were determined between 3-13 seconds of incubation, corrected for the buffer-only background, and compared across the variants. ScFv-linked liposomes were incubated with the sensors in PBS at 0.025 mM of liposome phospholipid, the slopes of the association curves were determined between 3-20 seconds of incubation, corrected for the buffer-only background, and compared across the variants.
# (§2) Results are shown below in Table 6, in which column A gives scFv identifiers; column B indicates percent yield of scFv/lipopolymer linker conjugates; column C gives percent scFv-conjugate (not liposome-bound) EphA2 binding on-rate; column D gives percent scFv-conjugated-liposome EphA2 binding on-rate; and columns E (Study 1) and F (study 2) give percent antigen binding on-rate remaining in the scFv-conjugate (not liposome-bound) following thermal stress.
# [2] = target: T2, Staphylococcus aureus Protein A (Staphylococcus aureus, UniProt P38507 37-477); test: Protein A binding measured as in Example 1; TS1C is the reference
# Description: Protein A binding for multiple samples was determined as follows: scFvs expressed by mammalian cells were obtained from cultures by centrifugation at 4000 g for 15 minutes to remove cells. The scFv titer in the supernatant was determined using Fortebio. Protein A binding was assayed using a 96 well Protein A plate (Protein A 96 well protein purification plate (GE Healthcare: Life Sciences, Protein A HP MultiTrap®) which contains Protein A-conjugated resin in wells with porous bottoms, allowing liquid in the wells to be collected from underneath via centrifugation or suction. Each well of the plate was washed with 1×PBS, and supernatant containing 250 μg of protein was loaded into each well. The supernatant is then separated from the Protein A resin using a vacuum manifold (Whatman®) with 10 mbar of pressure and the flow-through from each well separately collected into empty wells of a standard 96 well plate. The wells of the Protein A plate were then washed with 600 μL of 1×PBS (pH 7.6). To elute the resin-bound Ab, 200 μL of 0.1M acetic acid was added to each well and incubated at room temperature for 3-10 minutes. […]
# (§3) The fold improvement in Protein A binding capacity (as compared to TS1C) was measured as described in Example 1.
# [3] = target: T1, His6-tagged recombinant human EphA2 …; test: BLI (Octet Red 96); His6-EphA2 on anti-His sensors; scFv-PEG-DSPE conjugate at 2.5 ug/ml after thermal stress
# Source text: as §1, §2
# [4] = target: T1, His6-tagged recombinant human EphA2 …; test: BLI (Octet Red 96); His6-EphA2 on anti-His sensors; scFv-PEG-DSPE conjugate at 4.0 ug/ml after thermal stress
# Source text: as §1, §2
# [5] = target: T1, His6-tagged recombinant human EphA2 …; test: BLI (Octet Red 96); His6-EphA2 on anti-His sensors; slope of association curve of scFv-linked liposomes at 0.025 mM phospholipid; TS1C printed as 100
# Source text: as §1, §2
# [6] = target: T2, Staphylococcus aureus Protein A; test: Protein A binding measured as in Example 1, compared to TS1C
# Description: Protein A binding for multiple samples was determined as follows: scFvs expressed by mammalian cells were obtained from cultures by centrifugation at 4000 g for 15 minutes to remove cells. The scFv titer in the supernatant was determined using Fortebio. Protein A binding was assayed using a 96 well Protein A plate (Protein A 96 well protein purification plate (GE Healthcare: Life Sciences, Protein A HP MultiTrap®) which contains Protein A-conjugated resin in wells with porous bottoms, allowing liquid in the wells to be collected from underneath via centrifugation or suction. Each well of the plate was washed with 1×PBS, and supernatant containing 250 μg of protein was loaded into each well. The supernatant is then separated from the Protein A resin using a vacuum manifold (Whatman®) with 10 mbar of pressure and the flow-through from each well separately collected into empty wells of a standard 96 well plate. The wells of the Protein A plate were then washed with 600 μL of 1×PBS (pH 7.6). To elute the resin-bound Ab, 200 μL of 0.1M acetic acid was added to each well and incubated at room temperature for 3-10 minutes. The plate was placed over a second plate to capture eluate and centrifuged at 100×g for 2 minutes, and 20 μL of 1M Tris, pH 8.0 was added to neutralize the Abs in the eluate. To determine the percentage of Protein A binding, the concentration of scFv remaining in the flow-through was compared to the amount of protein (250 ug) loaded originally.
# as §3
# [7] = target: T3, human EphA2 on OVCAR-3 and U-251 cells (human, UniProt P29317 24-976); test: CLIA: scFv-decorated fluorescent NTA(Ni) liposomes on OVCAR-3 and U-251 cells, FACS
# T3 construct: whole, on cells; also called EphA2 receptors
# Description: To test the anti-EphA2 activity of these variant scFvs, the binding and internalization of liposomes externally decorated with these Abs was assayed on cell lines expressing EphA2. A rapid high-throughput Chelated Ligand-induced Internalization Assay (CLIA) (Nielsen et al., BMC immunology, 2006, 7:24) was used to screen anti-EphA2-scFv-targeted liposomes for binding and internalization assessment. Two cell lines that express high levels of EphA2 receptors, OVCAR-3 and U-251, were tested, as well as a murine EphA2-expressing mouse cell line, CT-26 (to test whether cross-reactivity to murine EphA2 was retained by the engineered scFvs). Via nickel-binding by each scFv's c-terminal His6 tag, the scFvs were bound to fluorescently labeled liposomes comprising an NTA(Ni) conjugated lipid (Dil5-NTA liposomes).
# Dil5-NTA liposomes were prepared as follows. The NTA conjugated lipid, DOD-Tri-NTA, was synthesized as described in Huang et al., Bioconjugate chemistry, 2006, vol. 17, p. 1592-1600. […] The concentration of liposomal phospholipid was then determined after acid digestion using spectrophotometric phosphomolybdate method.
# [8] = target: T4, murine EphA2 on CT-26 cells (mouse, UniProt Q03145 26-977); test: CLIA: scFv-decorated fluorescent NTA(Ni) liposomes on CT-26 cells, FACS
# T4 construct: whole, on cells
# Description: The concentration of liposomal phospholipid was then determined after acid digestion using spectrophotometric phosphomolybdate method. Prior to incubation with cells the liposomes were diluted to 0.4 mM phospholipid in Hank's Balanced Salt Solution (HBSS), and NiSO₄ was added to 0.1 mM. The hexahistidine scFvs were diluted into cell culture medium (see below) to the concentration of 25 μg/mL of scFv and mixed with equal volume of the liposome solution (“fluorescent NTA-liposome/scFv mixture”).
# By measuring fluorescence of the cells prior to and after incubation/wash with imidazole, which disrupts His6/Ni complexes and thereby releases and removes external (but not internalized) histidine-tagged scFv, the percentage of Ab internalized is quantitated. The test cells (human cancer cell lines OVCAR-3 and U-251 and the murine cancer cell line CT-26) were grown in the adherent state in […] cell culture medium supplemented with 10% FBS, 1× penicillin/streptomycin, and L-glutamine, to 90% confluence and harvested using 0.25% trypsin-EDTA. […] The relative amounts of cell-associated liposomes were evaluated by FACS (Cy5 fluorescence channel). The “binding” amount included both cell surface-bound and internalized liposomes and was proportional to cell fluorescence without imidazole wash. […]
# T1 sequence (P29317 25-534 limits assumed): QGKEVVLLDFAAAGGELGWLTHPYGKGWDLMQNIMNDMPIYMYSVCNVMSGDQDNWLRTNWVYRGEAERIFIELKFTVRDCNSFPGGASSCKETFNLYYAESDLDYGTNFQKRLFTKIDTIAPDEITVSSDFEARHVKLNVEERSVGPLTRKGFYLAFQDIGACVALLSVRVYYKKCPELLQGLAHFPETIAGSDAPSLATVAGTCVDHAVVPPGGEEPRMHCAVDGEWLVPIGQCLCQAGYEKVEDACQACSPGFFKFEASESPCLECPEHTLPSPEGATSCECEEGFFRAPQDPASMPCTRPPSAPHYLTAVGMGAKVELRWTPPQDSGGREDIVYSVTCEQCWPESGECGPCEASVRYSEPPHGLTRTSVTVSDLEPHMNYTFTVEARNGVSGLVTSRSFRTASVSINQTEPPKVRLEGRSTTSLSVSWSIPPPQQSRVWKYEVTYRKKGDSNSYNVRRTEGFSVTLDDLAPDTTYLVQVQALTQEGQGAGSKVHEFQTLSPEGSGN
# T4 sequence (Q03145 26-977): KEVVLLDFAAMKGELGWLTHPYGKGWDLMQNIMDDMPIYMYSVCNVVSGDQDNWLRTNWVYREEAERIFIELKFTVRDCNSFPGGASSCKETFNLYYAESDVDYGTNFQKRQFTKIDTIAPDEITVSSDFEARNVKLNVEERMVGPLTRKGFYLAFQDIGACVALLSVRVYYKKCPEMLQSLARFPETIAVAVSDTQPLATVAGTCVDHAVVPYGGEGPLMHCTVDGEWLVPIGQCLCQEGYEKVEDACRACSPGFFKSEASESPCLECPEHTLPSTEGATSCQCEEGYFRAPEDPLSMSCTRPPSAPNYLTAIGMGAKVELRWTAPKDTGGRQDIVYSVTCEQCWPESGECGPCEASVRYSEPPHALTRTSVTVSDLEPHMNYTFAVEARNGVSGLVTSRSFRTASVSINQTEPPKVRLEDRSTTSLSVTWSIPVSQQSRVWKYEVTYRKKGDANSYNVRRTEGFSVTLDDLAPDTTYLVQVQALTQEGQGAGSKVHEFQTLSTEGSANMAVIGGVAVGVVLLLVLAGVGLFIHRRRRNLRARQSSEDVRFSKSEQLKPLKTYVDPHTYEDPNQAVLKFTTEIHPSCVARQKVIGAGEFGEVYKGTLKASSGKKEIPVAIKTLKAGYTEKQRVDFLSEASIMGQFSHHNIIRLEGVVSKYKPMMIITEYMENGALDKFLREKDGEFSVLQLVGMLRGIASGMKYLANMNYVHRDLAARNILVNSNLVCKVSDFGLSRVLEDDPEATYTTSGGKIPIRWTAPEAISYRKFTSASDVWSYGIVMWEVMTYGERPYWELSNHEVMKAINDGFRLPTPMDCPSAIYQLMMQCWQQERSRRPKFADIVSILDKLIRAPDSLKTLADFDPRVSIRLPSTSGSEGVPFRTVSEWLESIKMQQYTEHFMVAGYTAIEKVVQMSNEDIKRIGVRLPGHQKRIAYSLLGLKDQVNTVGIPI
# T3 sequence (P29317 24-976): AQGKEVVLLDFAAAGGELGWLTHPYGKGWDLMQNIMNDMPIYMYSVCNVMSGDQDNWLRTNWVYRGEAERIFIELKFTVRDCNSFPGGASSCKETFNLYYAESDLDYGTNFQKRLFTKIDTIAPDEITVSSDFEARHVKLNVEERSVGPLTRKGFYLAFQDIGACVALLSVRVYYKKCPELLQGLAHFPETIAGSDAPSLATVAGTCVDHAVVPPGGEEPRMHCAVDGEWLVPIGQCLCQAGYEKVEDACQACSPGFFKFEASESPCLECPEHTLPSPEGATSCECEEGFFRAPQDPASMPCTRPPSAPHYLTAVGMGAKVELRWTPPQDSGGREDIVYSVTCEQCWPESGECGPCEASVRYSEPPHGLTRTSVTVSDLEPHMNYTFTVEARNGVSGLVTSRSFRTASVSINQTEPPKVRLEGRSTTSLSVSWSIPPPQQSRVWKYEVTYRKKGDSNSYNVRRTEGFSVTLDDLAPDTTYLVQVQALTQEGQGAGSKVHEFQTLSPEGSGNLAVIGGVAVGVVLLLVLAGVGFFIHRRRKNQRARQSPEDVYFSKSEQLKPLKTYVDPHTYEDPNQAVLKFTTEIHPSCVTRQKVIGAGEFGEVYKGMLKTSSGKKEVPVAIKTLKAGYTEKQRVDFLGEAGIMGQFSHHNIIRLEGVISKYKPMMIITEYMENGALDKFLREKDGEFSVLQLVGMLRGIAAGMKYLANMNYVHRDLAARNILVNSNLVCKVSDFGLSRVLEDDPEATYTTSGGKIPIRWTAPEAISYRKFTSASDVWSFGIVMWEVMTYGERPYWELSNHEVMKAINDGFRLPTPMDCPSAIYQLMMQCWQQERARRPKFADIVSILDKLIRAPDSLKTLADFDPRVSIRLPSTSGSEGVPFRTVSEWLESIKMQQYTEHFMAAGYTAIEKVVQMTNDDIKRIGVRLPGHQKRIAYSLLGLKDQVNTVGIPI
Binder,percent scFv-conjugate (not liposome-bound) EphA2 binding on-rate [1],Fold Improvement in Protein A Binding Capacity [2],percent antigen binding on-rate remaining in the scFv-conjugate following thermal stress (Study 1) [3],percent antigen binding on-rate remaining in the scFv-conjugate following thermal stress (Study 2) [4],percent scFv-conjugated-liposome EphA2 binding on-rate [5],Fold Improvement in Protein A Binding Capacity [6],binding result [7],binding result [8]
"TS1C (scFv, also called parental clone TS1 (C form)) scFv: QVQLVQSGGGLVQPGGSLRLSCAASGFTFSSYAMHWVRQAPGKGLEWVAVISYDGSNKYYADSVKGRFTISRDNSKNTLYLQMNSLRAEDTAVYYCARASVGATGPFDIWGQGTLVTVSSASTGGGGSGGGGSGGGGSGGGGSSSELTQPPSVSVAPGQTVTITCQGDSLRSYYASWYQQKPGTAPKLLIYGENNRPSGVPDRFSGSSSGTSASLTITGAQAEDEADYYCNSRDSSGTHLTVFGGGTKLTVLGGGSGGC",100%,1 fold,25.2%,13%,100%,–,–,–
"scFv-4C (scFv, also called clone 4) scFv: QVQLVQSGGGLVQPGGSLRLSCAASGFTFSSYAMHWVRQAPGKGLEWVTVISPHGRNKYYADSVKGRFTISRDNSKNTLYLQMNSLRAEDTAVYYCARASVGATGPFDIWGQGTLVTVSSASTGGGGSGGGGSGGGGSGGGGSSSELTQPPSVSVAPGQTVTITCQGDSLRSYYASWYQQKPGTAPKLLIYGENNRPSGVPDRFSGSSSGTSASLTITGAQAEDEADYYCNSRDSSGTHLTVFGGGTKLTVLGGGSGGC",97.3%,–,8.6%,5.6%,118%,5.8 fold,–,–
scFv TS1 (scFv) scFv: QVQLVQSGGGLVQPGGSLRLSCAASGFTFSSYAMHWVRQAPGKGLEWVAVISYDGSNKYYADSVKGRFTISRDNSKNTLYLQMNSLRAEDTAVYYCARASVGATGPFDIWGQGTLVTVSSASTGGGGSGGGGSGGGGSGGGGSSSELTQPPSVSVAPGQTVTITCQGDSLRSYYASWYQQKPGTAPKLLIYGENNRPSGVPDRFSGSSSGTSASLTITGAQAEDEADYYCNSRDSSGTHLTVFGGGTKLTVLG,–,–,–,–,–,–,binds,binds
scFv-12 (scFv) scFv: QVQLVQSGGGLVQPGGSLRLSCAASGFTFSSYAMHWVRQAPGKGLEWVAGISHPGDNTYYADSVKGRFTISRDNSKNTLYLQMNSLRAEDTAVYYCARASVGATGPFDIWGQGTLVTVSSASTGGGGSGGGGSGGGGSGGGGSSSELTQPPSVSVAPGQTVTITCQGDSLRSYYASWYQQKPGTAPKLLIYGENNRPSGVPDRFSGSSSGTSASLTITGAQAEDEADYYCNSRDSSGTHLTVFGGGTKLTVLG,–,–,–,–,–,–,–,no binding
